Measurements taken from article doi:10.1101/2024.01.22.576655 (bioRxiv, 2024).

Key:
Ribosomal protein L29 = Ribosomal protein L29 (Escherichia coli (endogenous in …, UniProt P0A7M6 1-63)); experiment: cross-linking
cross-linking = molecular target: the molecule itself; experiment: cross-linking

binding result (Ribosomal protein L29): binds
B1: DnaJ, recombinant (natural protein, Escherichia coli, UniProt P08622 1-376, looked up)
chain: MAKQDYYEILGVSKTAEEREIRKAYKRLAMKYHPDRNQGDKEAEAKFKEIKEAYEVLTDSQKRAAYDQYGHAAFEQGGMGGGGFGGGADFSDIFGDVFGDIFGGGRGRQRAARGADLRYNMELTLEEAVRGVTKEIRIPTLEECDVCHGSGAKPGTQPQTCPTCHGSGQVQMRQGFFAVQQTCPHCQGRGTLIKDPCNKCHGHGRVERSKTLSVKIPAGVDTGDRIRLAGEGEAGEHGAPAGDLYVQVQVKQHPIFEREGNNLYCEVPINFAMAALGGEIEVPTLDGRVKLKVPGETQTGKLFRMRGKGVKSVRGGAQGDLLCRVVVETPVGLNERQKQLLQELQESFGGPTGEHNSPRSKSFFDGVKKFFDDLTR
binding result (cross-linking): binds
